These results are taken from patent publication US20050037444A1 (INTERCELL, published 2005).

T1: soluble HLA class II molecule DRA1*0101/DRB1*0401 (human, UniProt P01903 26-216; P01911 30-227, limits assumed)
T1 construct: Recombinant soluble MHC class II heterodimer expressed in SC-2 cells (as in Aichinger et al., 1997); also called soluble DRA1*0101/DRB1*0401 molecules
T1 MHC II alpha: not shown
T1 MHC II beta: not shown

B1: p218-244 of Seq ID 142 (LPXTGVI) (peptide)
peptide: KDYAYIRFSVSNGTKAVKIVSSTHFNN
notes: synthetic peptide
B2: p620-646 of Seq ID 56 (LPXTGV) (peptide)
peptide: FPYIPDKAVYNAIVKVVVANIGYEGQ
notes: synthetic peptide
B3: p254-270 of Seq ID 94 (EMPBP) (peptide)
peptide: MHVPSFQNNTTATHQN
notes: synthetic peptide
B4: p107-124 of Seq ID 114 (POV2) (peptide)
peptide: ALVFEKSVVIANVGDSRA
notes: synthetic peptide
B5: p23-47 of Seq ID 114 (POV2) (peptide)
peptide: AGGIFYNQTNQQLLVLCDGMGGHK
notes: synthetic peptide
B6: p226-251 of Seq ID 94 (EMPBP) (peptide)
peptide: IKINHFCVVPQINSFKVIPPYGHNS
notes: synthetic peptide
B7: p4-29 of Seq ID 94 (EMPBP) (peptide)
peptide: KLLVLTMSTLFATQIMNSNHAKASV
notes: synthetic peptide
B8: p117-136 of Seq ID 89 (ORF1hom2) (peptide)
peptide: NNLRGYLIMPNQTLQIPNG
notes: synthetic peptide
B9: p395-418 of Seq ID 142 (LPXTGVI) (peptide)
peptide: FMVEGQRVRTISTYAINNTRCTIF
notes: synthetic peptide
B10: p306-326 of Seq ID 94 (EMPBP) (peptide)
peptide: PSLNIKNVNYQYAVPSYSPT
notes: synthetic peptide
B11: p96-121 of Seq ID 89 (ORF1hom2) (peptide)
peptide: GESLNIIASRYGVSVDQLMAANNLRG
notes: synthetic peptide
B12: p871-896 of Seq ID 56 (LPXTGV) (peptide)
peptide: QSWWGLYALLGMLALFIPKFRKESK
notes: synthetic peptide
B13: p24-40 of Seq ID 56 (LPXTGV) (peptide)
peptide: VIVSTLFLISQHQAQA
notes: synthetic peptide
B14: p209-233 of Seq ID 142 (LPXTGVI) (peptide)
peptide: IKLVSYDTVKDYAYIRFSVSNGTKA
notes: synthetic peptide
B15: p623-647 of Seq ID 142 (LPXTGVI) (peptide)
peptide: MTLPLMALLALSSIVAFVLPRKRKN
notes: synthetic peptide
B16: p416-428 of Seq ID 142 (LPXTGVI) (peptide)
peptide: TIFRYVEGKSLYE
notes: synthetic peptide
B17: p240-260 of Seq ID 74 (ORF1hom1) (peptide)
peptide: MNYGYGPGVVTSRTISASQA
notes: synthetic peptide
B18: p6-28 of Seq ID 56 (LPXTGV) (peptide)
peptide: PKLRSFYSIRKSTLGVASVIVST
notes: synthetic peptide
B19: p6-30 of Seq ID 142 (LPXTGVI) (peptide)
peptide: KEFKSFYSIRKSSLGVASVAISTL
notes: synthetic peptide
B20: p284-305 of Seq ID 94 (EMPBP) (peptide)
peptide: YKVVKGVKKYFSFSQSNGYKIG
notes: synthetic peptide
B21: p275-299 of Seq ID 94 (EMPBP) (peptide)
peptide: YDYKYFYSYKVVKGVKKYFSFSQS
notes: synthetic peptide

For the test, the target named is T1, soluble HLA class II molecule …. The experiment in a line: competition assay vs biotinylated UD4, L243 capture ELISA.
Regarding B1, the binding result is “binds”. With B2 the entry was “binds”; with B3, “binds”. Turning to B4, the binding result is “no binding (tested: 200 µM)”. With B5 the entry was “no binding (tested: 200 µM)”; with B6, “no binding (tested: 200 µM)”. Regarding B7, the binding result is “binds”. For the molecule B8, the binding result was “no binding (tested: 200 µM)”. For B9, the binding result is reported as “no binding (tested: 200 µM)”. B10: the binding result is “binds”. On to B11, for which the binding result is “no binding (tested: 200 µM)”. In the case of B12, the binding result was “no binding (tested: 200 µM)”. As for B13, the binding result was “no binding (tested: 200 µM)”. With B14 the entry was “binds”; with B15, “no binding (tested: 200 µM)”; with B16, “no binding (tested: 200 µM)”. With B17 the entry was “binds”. Consider B18, for which the binding result is given as “binds”. With B19, the binding result is “binds”.

Regarding B20, the binding result is recorded as “binds”. With B21 the entry was “binds”.
